Test results: the supplement of paper PMC10724198
± gives the standard deviation of the averaged measurements.

System: Saccharomyces cerevisiae
Assay: protein stability index of tFT-peptide fusion (C-terminal peptide) (PSI (0-1 scale)); higher = more stable (slower turnover)
Details: genetic background: wild type; temperature: 30 C
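Further: PSI is a weighted mean of sequencing reads over stability bins, variants kept only with over 10 reads, mCherry proximal and sfGFP distal, peptide attached via GGGS linker.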

Sequence	protein stability index
ERSVSDSHERID	0.678 ± 0.05
HHPTQRPRHRLG	0.683 ± 0.082
SLFPPPLLLSAS	0.574 ± 0.0095
KVWQISEVGAGY	0.617 ± 0.024
EKKKKENKVKRF	0.664 ± 0.013
NPLHGNIRLSPL	0.685 ± 0.046
SRETRRRENPAK	0.677 ± 0.19
SAQSAGRQRLQK	0.695 ± 0.014
HRRGRVAQFAIS	0.644 ± 0.029
SILWRCEEEIRR	0.736 ± 0.029
GAVAAVPRGGIL	0.715 ± 0.018
APKCRRRNSSGL	0.68 ± 0.057
FCRTSGSVGDHV	0.721 ± 0.017
PPLGMPLYHPRP	0.7426 ± 0.0021
YVLSVKEGTNLP	0.709 ± 0.023
GHRLSMCLGFGK	0.63 ± 0.01
ARQSVYNDLVYV	0.582 ± 0.0065
PPHQPRTPNSPP	0.68 ± 0.034
PPVPPPPRLPRP	0.727 ± 0.019
VPPPLRLWPLPV	0.618 ± 0.076
TSASLLLSFAVP	0.6768 ± 0.0022
TVACILPLAQSL	0.706 ± 0.075
THSQPPQYSRVP	0.638 ± 0.071
ERRGRDRSQTLR	0.715 ± 0.014
SPRPYFSLVLFF	0.539 ± 0.0032
KKKTKTQTGKKS	0.744 ± 0.016

Sequence	protein stability index
RPRCAPSPPLPP	0.691 ± 0.047
VGRVGVRDGVVG	0.613 ± 0.032
WSGVFSCTLSIT	0.567 ± 0.038
PPVKQKEKGTAT	0.701 ± 0.021
VQWTEFYWVRKG	0.575 ± 0.037
RSLGGGVGARFV	0.695 ± 0.037
QPPLPPPLPGSP	0.741 ± 0.085
SPPPGSRTFAFR	0.697 ± 0.042
LRRRGHCLRGEL	0.6313 ± 0.0023
VAWYALPWCVLI	0.6211 ± 0.0041
INLVKRQTVKPP	0.611 ± 0.076
SPPPPASPPAPP	0.648 ± 0.062
GIGYVTPLSRVL	0.72 ± 0.038
KAKCRNRQDEVI	0.742 ± 0.026
VGGVAGSFIFSC	0.759 ± 0.15
RARPGKATSAFH	0.73 ± 0.019
RGVAGSTLGLRI	0.566 ± 0.069
QITYKTLSGINM	0.703 ± 0.065
LSARIGEMVDTW	0.56 ± 0.027
TSVSLYWDSNLC	0.751 ± 0.033
PLPPPPALILFP	0.6856 ± 0.003
RPLPLRLDGSGS	0.719 ± 0.047
PGPATKAPLRTL	0.671 ± 0.018
SVPTPSSNPRVK	0.698 ± 0.05
GSQLFESVVVRV	0.679 ± 0.061
CFVSSSRFLSSF	0.692 ± 0.065

Sequence	protein stability index
LLLLIPCYSPPP	0.659 ± 0.071
EWVTRQFEGWEG	0.7474 ± 0.0021
PSLPPSPISPPH	0.588 ± 0.013
WPAPLPPTRPLP	0.722 ± 0.038
VYRLYPLSPLLY	0.679 ± 0.12
APPFRYLNSVSC	0.66 ± 0.034
ISDRKARSDKNK	0.656 ± 0.071
ALSGSFVSWLGG	0.689 ± 0.061
QCLTVPRSAHLP	0.607 ± 0.05
PPPPAPYRPPSC	0.682 ± 0.0054
PYFSLFSRRSLN	0.539 ± 0.02
NSGSNKSNNRKC	0.726 ± 0.032
PQSCNILRGLES	0.708 ± 0.056
VPLRPFFPTLFP	0.712 ± 0.063
HKNPQKEVIAKT	0.744 ± 0.058
LFLFAPRPPPPP	0.717 ± 0.03
PSPPPPPALPSH	0.66 ± 0.13
GCSPTLMVSFIA	0.572 ± 0.037
VQGSRKGSRERW	0.683 ± 0.065
KCSSEPMCKTCR	0.626 ± 0.053
GERLGEWGGGVG	0.669 ± 0.0093
APSPPPRISAWL	0.749 ± 0.045
DDATLAVCRGWV	0.731 ± 0.028
PPSLPPPPPVHP	0.648 ± 0.034
LPHPRLPSPPGP	0.6858 ± 0.0056
PFVSGFGRPGYC	0.751 ± 0.039

Sequence	protein stability index
RPAGGPRGGEGV	0.648 ± 0.058
DQRRKKKPIKGN	0.736 ± 0.12
TRCSIPSSLSLM	0.677 ± 0.016
ERAGPGGARRVD	0.696 ± 0.018
RGMPMARVRSAG	0.693 ± 0.054
SASPPLAERRGQ	0.655 ± 0.043
AWGLKRSCRIKL	0.678 ± 0.051
RRSRFSGACLLM	0.773 ± 0.13
FSAPPPPSPPLS	0.721 ± 0.053
ALHYEVVGRGYL	0.679 ± 0.036
AVFYGRWRGVWE	0.859 ± 0.12
TQLNATVSWTEK	0.665 ± 0.014
DLSFVLAPFVSP	0.6683 ± 0.0038
VVLRRTLGAFLF	0.661 ± 0.059
GRKKKRREEKDT	0.609 ± 0.027
VWSWGDGGGAVV	0.734 ± 0.029
TPCTFPPLIRSP	0.672 ± 0.039
VVVAWGGGAVVG	0.684 ± 0.018
PPPPPPPPPLPR	0.657 ± 0.039
IRSLRWVRRESV	0.706 ± 0.1
NHRQPNSTKNRT	0.547 ± 0.044
KSVPLCSLGTTG	0.6726 ± 0.0036
RERAQEMGIRNE	0.675 ± 0.031
GKNKRKTYGKRE	0.722 ± 0.035
SFSSPPPTLVPP	0.693 ± 0.038
GVLSLFGFNTVV	0.71 ± 0.16

Sequence	protein stability index
PPLPPLPLAPPY	0.6927 ± 0.005
VHRRRVSVGGGG	0.69 ± 0.0092
PPPQSFLPRPPH	0.713 ± 0.0062
QPRLRPPLPSPP	0.638 ± 0.069
SSASLIPPPPVP	0.693 ± 0.053
GQSSYFRRFRVG	0.6185 ± 0.0031
PFPLGPSLQTVI	0.681 ± 0.028
KHRIEYQEKNTF	0.67 ± 0.019
PHEKDKNMGKQK	0.702 ± 0.085
SLQTRANTGLWT	0.689 ± 0.034
VGFGFVRSLLVG	0.6151 ± 0.005
FGAGLTACPVSV	0.517 ± 0.036
QFVSALVCLSVG	0.5534 ± 0.0015
PARQDRPPDHAS	0.729 ± 0.031
PPPPPLPPPSPP	0.598 ± 0.036
LPPRPTPPPPPP	0.71 ± 0.056
RLDRARTPPAST	0.779 ± 0.05
RCPVFRCITGGL	0.61 ± 0.031
VQLHIDVRSFLF	0.67 ± 0.014
FFGGAGVTEGLG	0.683 ± 0.043
YAGARGPMNRGS	0.701 ± 0.015
SPPLFCSPPISP	0.719 ± 0.043
ARRTSAGVWCTA	0.705 ± 0.04
NLFDHIHRSTPS	0.761 ± 0.0078
VKEVSVIKNHQG	0.454 ± 0.11
SPPLHPPPPFPL	0.769 ± 0.047

Sequence	protein stability index
AVLGGAGGGWAG	0.687 ± 0.12
FPAPFLRVSPLW	0.644 ± 0.048
GRCLGREGVCGL	0.673 ± 0.018
LPFFFPPFFITR	0.532 ± 0.013
PLPLPPSPPFQF	0.751 ± 0.011
PNPPPPRPTPTP	0.6688 ± 0.0049
PPPRLPTSPDSP	0.722 ± 0.061
CRISHPPLGGGS	0.652 ± 0.02
QGKPSKWRSGSI	0.646 ± 0.048
NNMSFLPMLDYT	0.65 ± 0.042
CSRLDVSEVVGD	0.663 ± 0.074
SYPLSRPCSPCD	0.677 ± 0.068
PHVGSGDGVMKA	0.598 ± 0.038
EVYTWTGNMWNI	0.673 ± 0.095
PPLPPLPPLSVS	0.675 ± 0.029
RYNRVVCTEFHL	0.668 ± 0.01
LHPPLTLTFYLS	0.555 ± 0.0089
PSFSPPQVPFPV	0.721 ± 0.06
SLFSVLSPPYPS	0.653 ± 0.032
SCLRCSCLTEVL	0.614 ± 0.021
FWVGGGVFGVRV	0.747 ± 0.015
ATLCVVSKLGLC	0.589 ± 0.0069
PSSSDHDTRQKK	0.708 ± 0.058
PPPLPPPPPLPP	0.589 ± 0.038
GVGCVGWGSSCA	0.673 ± 0.093
TRLTSATHGVCC	0.6331 ± 0.0053

Sequence	protein stability index
AAVSRPLPLGPP	0.693 ± 0.075
PKVRAGYSYEVM	0.673 ± 0.019
ELRSYAGMSGFN	0.736 ± 0.014
PAPPPHIPPSPS	0.651 ± 0.023
VGGGGECCFLEG	0.826 ± 0.1
RVALVCGLGCIF	0.683 ± 0.029
LRPGVRHFRECV	0.627 ± 0.096
VPASVRRSAPVP	0.664 ± 0.044
LGMMIPQILDFV	0.586 ± 0.014
LYDSNLILSIPC	0.617 ± 0.14
LSYPPPPTQPPA	0.734 ± 0.0083
SFRPPPPSSFPA	0.745 ± 0.019
YLPKLSTYRLLR	0.654 ± 0.032
VVCRTSPVCLGK	0.672 ± 0.019
VCSPLLIYSVGV	0.624 ± 0.051
FTPLFSPVLLLP	0.72 ± 0.12
FYAGELSCRHQT	0.694 ± 0.025
PSELLPQLPSRW	0.702 ± 0.019
ATVPLVTPLPHF	0.697 ± 0.042
GGGRPDRPQRAI	0.741 ± 0.026
PLAPYPPLPPPP	0.69 ± 0.027
SVGGLAALLCGL	0.682 ± 0.037
VLVFPVVYWILR	0.543 ± 0.038
IRRRQKYPKKKS	0.6803 ± 0.0059
PLLPSLPPLLAP	0.651 ± 0.05
KKEISSTAGIIV	0.637 ± 0.073

Sequence	protein stability index
KKKNRKQKHKQL	0.565 ± 0.014
LLLSPSRLPPAD	0.676 ± 0.043
SFGLSAGGDDRW	0.74 ± 0.016
SPPPNPPRPSSR	0.768 ± 0.014
SPDCSLSPSVSG	0.684 ± 0.029
WFGSGGRGWREF	0.713 ± 0.048
HLPGFAVVFPFP	0.717 ± 0.032
APRFLGLLCPLL	0.655 ± 0.0089
GRCPPPSPPHPL	0.68 ± 0.038
PVSPRLLLRFTL	0.691 ± 0.14
RGGAGSWDWEAG	0.707 ± 0.028
MVIYGKEGWRIQ	0.661 ± 0.07
VIGRRRLQDWII	0.736 ± 0.081
ISVSLWFRGRYY	0.599 ± 0.034
LGGGGRGFAGRK	0.618 ± 0.029
PRAPPLPPSPSP	0.668 ± 0.011
KNKTKQKTRTET	0.704 ± 0.013
HPPAPSPPETSL	0.69756 ± 0.0005
LVCHDWFSFYMF	0.64 ± 0.035
RGGGGAKGEGVR	0.707 ± 0.048
